Reference: paper PMC3904827, “Segmental Helical Motions and Dynamical Asymmetry Modulate Histidine Kinase Autophosphorylation” (PLoS Biology, 2014)

How the values were obtained:
[1] = target: the molecule itself; assay: crystal structure; dimers to tetramer (dimer of dimers) as seen in the hexagonal and monoclinic crystal forms; vapor diffusion at 18°C, protein at ~15 mg/ml
[2] = target: the molecule itself; assay: crystal structure; monomers to homodimer; vapor diffusion at 18°C, protein at ~15 mg/ml, in complex with nucleotides; five crystal forms (C222_(1), P3_(1)21, P6_(1)22, C2, I2)

Protein	stoichiometry N [1]	stoichiometry N [2]
full cytoplasmic region of E. coli CpxA (CpxAHDC), wild type (domain or fragment, Escherichia coli, UniProt P0AE82 188-457, looked up, Sensor histidine kinase CpxA, Escherichia coli, full cytoplasmic region: HAMP domain (residues 188-237) and DHp and CA domains (residues 238-457); The trigonal (4BIV) and hexagonal (4CB0) crystals were grown from seleno-methionyl protein; Crystallised with ADP or ATP; also called CpxA transmitter core; wild-type CpxAHDC; source: SeMet protein from E. coli B834 (DE3)) KPARKLKNAADEVAQGNLRQHPELEAGPQEFLAAGASFNQMVTALERMMTSQQRLLSDISHELRTPLTRLQLGTALLRRRSGESKELERIETEAQRLDSMINDLLVMSRNQQKNALVSETIKANQLWSEVLDNAAFEAEQMGKSLTVNFPPGPWPLYGNPNALESALENIVRNALRYSHTKIEVGFAVDKDGITITVDDDGPGVSPEDREQIFRPFYRTDEARDRESGGTGLGLAIVETAIQQHRGWVKAEDSPLGGLRLVIWLPLYKRS	4	2
point mutant CpxA_(HDC_M228V) of the full cytoplasmic region of E. coli CpxA (domain or fragment, Escherichia coli, UniProt P0AE82 188-457, looked up, Sensor histidine kinase CpxA, Escherichia coli, full cytoplasmic region (HAMP 188-237, DHp and CA 238-457) with the point mutation Met228-Val in the HAMP domain; Probably made like wild-type CpxAHDC (His-tagged, pET28a+, E. coli, IMAC and gel filtration), but the methods describe only the CpxAHDC construct; Crystallised with AMPPNP or ADP; also called CpxAHDC Met228-Val; source: purified protein) KPARKLKNAADEVAQGNLRQHPELEAGPQEFLAAGASFNQVVTALERMMTSQQRLLSDISHELRTPLTRLQLGTALLRRRSGESKELERIETEAQRLDSMINDLLVMSRNQQKNALVSETIKANQLWSEVLDNAAFEAEQMGKSLTVNFPPGPWPLYGNPNALESALENIVRNALRYSHTKIEVGFAVDKDGITITVDDDGPGVSPEDREQIFRPFYRTDEARDRESGGTGLGLAIVETAIQQHRGWVKAEDSPLGGLRLVIWLPLYKRS	4	2
